T1: human VISTA expressed on cells (human, UniProt Q9H7M9 33-295)
T1 sequence: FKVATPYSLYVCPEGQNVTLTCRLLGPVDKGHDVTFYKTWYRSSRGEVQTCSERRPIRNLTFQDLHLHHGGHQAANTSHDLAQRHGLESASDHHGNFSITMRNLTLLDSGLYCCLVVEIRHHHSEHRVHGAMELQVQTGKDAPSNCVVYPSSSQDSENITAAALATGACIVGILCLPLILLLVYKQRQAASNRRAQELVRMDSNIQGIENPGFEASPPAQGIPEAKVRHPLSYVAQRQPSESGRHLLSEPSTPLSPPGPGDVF

T2: human VISTA extracellular domain (human, UniProt Q9H7M9 33-194)
T2 construct: also called SB0361 (human); human VISTA ECD
T2 sequence: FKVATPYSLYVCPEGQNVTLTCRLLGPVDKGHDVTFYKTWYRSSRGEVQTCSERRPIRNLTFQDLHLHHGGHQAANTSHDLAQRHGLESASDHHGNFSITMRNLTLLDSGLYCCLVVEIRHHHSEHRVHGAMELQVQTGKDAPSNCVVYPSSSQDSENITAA

T3: cynomolgus VISTA extracellular domain (cynomolgus, UniProt A0A7N9IB00 33-194)
T3 construct: extracellular domain; also called SB0361 (cyno); cyno VISTA ECD
T3 sequence: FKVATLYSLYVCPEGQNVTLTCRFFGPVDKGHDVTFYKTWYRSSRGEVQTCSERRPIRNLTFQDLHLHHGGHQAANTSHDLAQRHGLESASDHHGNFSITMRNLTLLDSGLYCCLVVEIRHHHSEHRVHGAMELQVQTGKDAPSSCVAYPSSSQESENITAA


Experiments:
[1] = target: T1, human VISTA expressed on cells; experiment: cell-based or functional assay
[2] = target: T1, human VISTA expressed on cells; experiment: cell-based or functional assay; remark: listed apart in the source
[3] = target: T1, human VISTA expressed on cells; experiment: cell-based or functional assay; remark: listed apart in the source
[4] = target: T2, human VISTA extracellular domain; experiment: ProteOn SPR
Description: (§1) Antibodies were captured on ProteOn chips using anti-IgG Fc coated surfaces. […] The antigens were allowed to bind/associate to the antibody-coated chips for 4 minutes after which time dissociation was monitored for 30 minutes. Chips were regenerated with two treatments of 100 mM phosphoric acid for 18 seconds. All experiments were run at 25° C. and data was fit to 1:1 Langmuir binding model.

[5] = target: T3, cynomolgus VISTA extracellular domain; experiment: ProteOn SPR
Description: as §1

Binder | IC50, IFN-γ in the MLR [1] | IC50, IFN-γ in the SEB assay [2] | EC50 IFNγ production, MLR [3] | Kd [4] | koff [4] | kon [4] | Kd [5] | koff [5] | kon [5]
VSTB50 (antibody, human IgG1, kappa, V domains shown) VH: QVQLVQSGSELKKPGASVKVSCKASGYTFTNYGLNWVRQAPGQGLEWMGWINPYTGEPTYADDFKGRFVFSLDTSVSTAYLQICSLKAEDTAVYYCAREGYGNYIFPYWGQGTLVTVSS VL: DIVMTQTPLSLSVTPGQPASISCRASESVDTYANSLMHWYLQKPGQPPQLLIYRASNLESGVPDRFSGSGSGTDFTLKISRVEAEDVGVYYCQQTNEDPRTFGQGTKLEIKR | 0.06 log10 of antibody concentration | 1.69 log10 of antibody concentration | 1.14 mg/L |  |  |  |  |  | 
VSTB60 (antibody, human IgG1, kappa, V domains shown) VH: QVQLVQSGSELKKPGASVKVSCKASGYTFTNYGMTWVRQAPGQGLEWMGWINTYTGESTYADDFKGRFVFSLDTSVSTAYLQICSLKAEDTAVYYCARDYYGIYVSAYWGQGTLVTVSS VL: DIVMTQTPLSLSVTPGQPASISCRASESVDNYANSFMHWYLQKPGQSPQLLIYRASNLESGVPDRFSGSGSGTDFTLKISRVEAEDVGVYYCQQSHEDPYTFGQGTKLEIKR | 0.4 log10 of antibody concentration |  | 2.48 mg/L |  |  |  |  |  | 
VSTB103 (antibody, V domains shown) VH: EVQLVQSGAEVKKPGESLKISCKGSGYSFTSYWIGWVRQMPGKGLEWMGIIYPGDSDTRYSPSFQGQVTISADKSISTAYLQWSSLKASDTAMYYCARDDALYGGYYLDYWGQGTLVTVSS VL: not shown |  |  |  | 0.636 nM | 0.000336 s⁻¹ | 528000 M⁻¹ s⁻¹ | 0.302 nM | 0.00018 s⁻¹ | 598000 M⁻¹ s⁻¹
VSTB116 (antibody, human IgG1, kappa, V domains shown) VH: QVQLVQSGAEVKKPGSSVKVSCKASGGTFSSYAISWVRQAPGQGLEWMGGIIPIFGTANYAQKFQGRVTITADESTSTAYMELSSLRSEDTAVYYCARSSYGWSYEFDYWGQGTLVTVSS VL: DIQMTQSPSSLSASVGDRVTITCRASQSINTNLNWYQQKPGKAPKLLIYAASSLQSGVPSRFSGSGSGTDFTLTISSLQPEDFATYYCQQARDTPITFGQGTKVEIKR | -0.16 log10 of antibody concentration | -0.35 log10 of antibody concentration | 0.69 mg/L |  |  |  |  |  | 
VSTB95 (antibody, human IgG1, kappa, V domains shown) VH: EVQLVESGGGLVQPGGSLRLSCAASGFTFRNYGMSWVRQAPGKGLEWVASIISGGSYTYYPDSVKGRFTISRDNAKNSLYLQMNSLRAEDTAVYYCARIYDHDGDYYAMDYWGQGTTVTVSS VL: DIVMTQSPLSLPVTPGEPASISCRSSQSIVHSNGNTYLEWYLQKPGQSPQLLIYKVSNRFSGVPDRFSGSGSGTDFTLKISRVEAEDVGVYYCFQGSHVPWTFGQGTKLEIKR | 0.22 log10 of antibody concentration | 0.05 log10 of antibody concentration | 1.67 mg/L |  |  |  |  |  | 
VSTB53 (antibody, human IgG1, kappa, V domains shown) VH: QVQLVQSGAEVKKPGASVKVSCKASGYTFTHYTIHWVRQAPGQGLEWMGYIIPSSGYSEYNQKFKDRVTMTRDTSTSTVYMELSSLRSEDTAVYYCARGAYDDYYDYYAMDYWGQGTLVTVSS VL: DIVMTQSPLSLPVTPGEPASISCRSSQTIVHSNGNTYLEWYLQKPGQSPQLLIYKVSNRFSGVPDRFSGSGSGTDFTLKISRVEAEDVGVYYCFQASHVPWTFGQGTKLEIKR | 0.27 log10 of antibody concentration | -1.05 log10 of antibody concentration | 1.88 mg/L |  |  |  |  |  | 
VSTB74 (antibody, V domains shown) VH: QMQLVQSGPEVKKPGTSVKVSCKASGYIFTDYNIDWVRQARGQRLEWIGDINPKYDSTRYNQKFKGRVTITRDMSTSTAYMELSSLRSEDTAVYYCAADGSSAMDYWGQGTTVTVSS VL: DIVMTQSPDSLAVSLGERATINCKSSQSLLNSGHQKNYLAWYQQKPGQPPKLLIYGASTRESGVPDRFSGSGSGTDFTLTISSLQAEDVAVYYCQNDHRYPLTFGQGTKLEIKR |  |  |  | 0.562 nM | 0.000223 s⁻¹ | 397000 M⁻¹ s⁻¹ | 0.347 nM | 0.000144 s⁻¹ | 415000 M⁻¹ s⁻¹

From US20210171640A1 (Janssen / Centocor, published 2021)
